A short description of the series: protein stability index of a GFP-peptide fusion (GPS, HEK-293T) (PSI 1-6); higher = more stable.
The mark [1] stands for this setting: treatment: DMSO, c terminus: a fixed tail appended.
The mark [2] stands for this setting: treatment: MLN4924 1 uM, 8 h, c terminus: a fixed tail appended.

± gives the standard deviation.
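Note: 24-mer peptide tiles fused after GFP, lentivirally expressed, FACS-sorted into six equal bins by GFP/DsRed ratio, decoded by Illumina sequencing, PSI is the read-weighted mean bin number.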

Turning to LDLMPRLMTSKPAEVVKILQTMLR [INTS4], the protein stability index reads like this: under setting [1], 2.23 ± 0.16; under setting [2], 2.13 ± 0.15.

For the sequence LDLSSSSQMSPLSLYGENSNSLSS [ATF6], the protein stability index under setting [1] was 4.01 ± 0.19 and the protein stability index under setting [2] stood at 3.92 ± 0.26.

Turning to LDQALKEGGKLPPPPPPSYDPDYI [ZC2HC1A], the protein stability index by setting is: under setting [1], 4.95 ± 0.16; under setting [2], 4.89 ± 0.16.

Take LDVKSPPEPRSEVVPARLKRASAP [RIPK4]: the protein stability index reads like this: under setting [1], 5.08 ± 0.49; under setting [2], 5.11 ± 0.092.

As to LEADELCDDGGDGRGAVVPGAGLR [ZBTB22], the protein stability index was determined as 5.18 ± 0.27 under setting [1] and 5.26 ± 0.17 under setting [2].

On to LEAIQLDGEILFSLLQKVSPVAHK [TBC1D10A], for which the protein stability index under setting [1] came out at 2.12 ± 0.48 and the protein stability index under setting [2] amounted to 2.01 ± 0.34.

Regarding LEDGQTPLHLSALRDDVLCARMLY [ASB7], the protein stability index reads like this: under setting [1], 2.67 ± 0.29; under setting [2], 2.93 ± 0.33.

For LEEEIRRKQILLRGKLKKTEEELR [ZC2HC1C], the protein stability index reads like this: under setting [1], 4.39 ± 0.17; under setting [2], 4.59 ± 0.39.

For the sequence LEEQFALEAGGYQAGAARLEEELR [PRPH], the protein stability index reads like this: under setting [1], 5.35 ± 0.49; under setting [2], 5.62 ± 0.16.

Turning to LEGQSPPQSLPSTPKAAWIREEGR [PBXIP1], the protein stability index is 4.89 ± 0.26 under setting [1] and 4.76 ± 0.091 under setting [2].

Regarding LEHRLNEMERTQAQLRDAVQSLQL [RASAL3], the protein stability index under setting [1] amounted to 4.16 ± 0.51 and the protein stability index under setting [2] amounted to 4.22 ± 0.19.

LELSYGFENGQKAAVVHHFESFPA [TOR1AIP2]: the protein stability index was 2.52 ± 0.58 under setting [1] and 2.42 ± 0.18 under setting [2].

In the case of LEPKANLQAALQVLELHHSKLDTT [VPS39], the protein stability index is, setting by setting: under setting [1], 4.2 ± 0.19; under setting [2], 4.31 ± 0.19.

As to LEQEQEFQVNKLMKKIKKLENDTI [CCDC6], the protein stability index runs as follows: under setting [1], 4.31 ± 0.6; under setting [2], 4.19 ± 0.58.

As to LESLEDTHIMKGEDDALSDKHGCP [TRIB1], the protein stability index runs as follows: under setting [1], 5.23 ± 0.69; under setting [2], 5.37 ± 0.57.

Regarding LESYEDIHGTLHLERLAYLHARLR [PRAME], the protein stability index came to 2.41 ± 0.18 under setting [1] and 2.61 ± 0.29 under setting [2].

On to LFFAVGIAQYALLGYFIRSWRTLA [SLC22A15], for which the protein stability index is 3.3 ± 0.34 under setting [1] and 3.18 ± 0.26 under setting [2].

LGACVRTAVAQGGWRSLWLGWGPT [SLC25A39] registered a protein stability index under setting [1] of 2.07 ± 0.63 and a protein stability index under setting [2] of 2.04 ± 0.16.

Consider LGLDDFESLKVIGRGAFGEVRLVQ [STK38L], for which the protein stability index is, setting by setting: under setting [1], 3.55 ± 0.58; under setting [2], 3.38 ± 0.33.

LGNREALIQFLEQVHQGIKGMVLD [CPN1]: the protein stability index came out at 2.43 ± 0.34 under setting [1] and 2.26 ± 0.18 under setting [2].

Consider LGVLHPNTKLRQAERLFENQLVGP [APMAP], for which the protein stability index runs as follows: under setting [1], 2.57 ± 0.32; under setting [2], 3.16 ± 0.24.

Regarding LHSGLVHGLAFWFDVAFIGSIMTV [CARM1], the protein stability index stood at 3.87 ± 0.46 under setting [1] and 3.56 ± 1.3 under setting [2].

On to LHTFTPAGRPRAERRPRRVEAERP [FAM189A2], for which the protein stability index is, setting by setting: under setting [1], 4.45 ± 0.21; under setting [2], 4.45 ± 0.31.

LIDVCKYLGSLQYRVWKKMLASVE [TRIM35]: the protein stability index was 2.75 ± 0.43 under setting [1] and 2.25 ± 0.33 under setting [2].

The sequence LKLMVNVCGHTLCESCVDLLFVRG [MNAT1] showed a protein stability index under setting [1] of 3.35 ± 0.92 and a protein stability index under setting [2] of 3.27 ± 0.44.

On to LKLRQQVIATATVYFKRFYARYSL [CCNC], for which the protein stability index was 2.85 ± 0.51 under setting [1] and 2.49 ± 0.18 under setting [2].

Consider LKMKEREEAWVKIENLAKANPQYT [PPP2R5C], for which the protein stability index under setting [1] turned out to be 3.4 ± 0.22 and the protein stability index under setting [2] is 3.56 ± 0.19.

Consider LLAGGEKATMQNLNDRLASYLDKV [KRT17], for which the protein stability index is, setting by setting: under setting [1], 2.84 ± 0.17; under setting [2], 3.08 ± 0.31.

Turning to LLAKNSKPIHTTILNPHVHVIGED [CAMK2B], the protein stability index under setting [1] was found to be 3.2 ± 0.14 and the protein stability index under setting [2] stood at 3.35 ± 0.22.

For LLDVKTRLEQEIATYRRLLEGEDA [KRT16], the protein stability index is, setting by setting: under setting [1], 4.24 ± 0.15; under setting [2], 4.2 ± 0.35.

Take LLFNVKSPTDIQDSSIIRTTQDLF [RHOBTB3]: the protein stability index runs as follows: under setting [1], 2.37 ± 0.17; under setting [2], 2.35 ± 0.32.

On to LLPEKAFSDIPSPYLRGTIKMMQA [GFOD1], for which the protein stability index reads like this: under setting [1], 2.45 ± 0.23; under setting [2], 2.81 ± 0.44.

LLPLRTKVAKLLGYSTHADFVLEM [NLN] showed a protein stability index under setting [1] of 2.22 ± 0.43 and a protein stability index under setting [2] of 2.32 ± 0.28.

Regarding LLRDQFVKALEDFEDLCDRVFSDE [FAM9B], the protein stability index under setting [1] was 2.97 ± 0.29 and the protein stability index under setting [2] stood at 3.17 ± 0.38.

For LLRFGVPSPSTLEPHPRPLLQREL [TNXB], the protein stability index came out at 3.08 ± 0.18 under setting [1] and 2.93 ± 0.23 under setting [2].

Consider LLSLVTFTFLSAKCLQGNADGDGG [PCDHGC5], for which the protein stability index runs as follows: under setting [1], 3.46 ± 0.031; under setting [2], 2.93 ± 0.44.

On to LLVLLLYAPVGFCLLVLRLFLGIH [AUP1], for which the protein stability index worked out at 2.21 ± 0.23 under setting [1] and 2.11 ± 0.2 under setting [2].

With LNPQLVQPAKKPLLWSDPADNKIV [ESRRG], the protein stability index reads like this: under setting [1], 3.78 ± 0.23; under setting [2], 3.83 ± 0.047.

Regarding LNQGFLQAKPEKAAVAQKPRSHFT [MYBL2], the protein stability index under setting [1] worked out at 3.88 ± 0.34 and the protein stability index under setting [2] turned out to be 4.06 ± 0.12.

Take LPKLYLPTGPRRGRDELGGGRRPG [CDKN1A]: the protein stability index by setting is: under setting [1], 4.05 ± 0.63; under setting [2], 4.35 ± 0.38.

In turn, LPQDPHTKKALEAHCRADELASQD [PPP2R5C] returned a protein stability index under setting [1] of 5.04 ± 0.2 and a protein stability index under setting [2] of 5.17 ± 0.27.

LPSNPCATTNACEKPIGSCVTNPC [KRT33B] came in with a protein stability index under setting [1] of 4.29 ± 0.081 and a protein stability index under setting [2] of 4.41 ± 0.17.

Regarding LPVDDDSDLNVVASFDRRGEYIYT [RBBP5], the protein stability index was found to be 3.41 ± 0.25 under setting [1] and 3.7 ± 0.28 under setting [2].

Consider LPYQRRYRERRDSDTYRCEERSPS [CLK3], for which the protein stability index came to 4.77 ± 0.12 under setting [1] and 4.81 ± 0.22 under setting [2].

Turning to LQAPFLPPKAPPPVIKIPECPSMG [RHOBTB1], the protein stability index under setting [1] amounted to 3.6 ± 0.23 and the protein stability index under setting [2] came to 3.53 ± 0.57.

LQFDPAPRRGEPHVTRRTPDYFL [PPP2CA] gave a protein stability index (treatment: DMSO, c terminus: native) of 4.16 ± 0.3 and a protein stability index (treatment: MLN4924 1 uM, 8 h, c terminus: native) of 4.18 ± 0.18.

Take LQRPSYKFFFKSMDDDFGVVKEEI [DVL3]: the protein stability index amounted to 2.76 ± 0.29 under setting [1] and 2.85 ± 0.35 under setting [2].

Regarding LRERVKKVKRSLRQARKKGRHLEL [CCDC3], the protein stability index is 3.36 ± 0.39 under setting [1] and 3.58 ± 0.71 under setting [2].

As for LRKQLQPTHCKYEGPRKARRLWFA, the protein stability index reads like this: under setting [1], 2.43 ± 0.089; under setting [2], 2.07 ± 0.25.

Take LRLEEPRMDFAAKLMKNIRFPLMT [KLHL13]: the protein stability index under setting [1] turned out to be 2.31 ± 0.29 and the protein stability index under setting [2] was determined as 2.43 ± 0.37.

For the sequence LRNFNSAKDMKKAVAHMKYMGKGS [MATN2], the protein stability index is 3.05 ± 0.37 under setting [1] and 3.43 ± 0.46 under setting [2].

For LRQLTAELAEHRCHPVERGIKSKE [PSD2], the protein stability index reads like this: under setting [1], 3.99 ± 0.26; under setting [2], 4.2 ± 0.043.

The sequence LRRGASVNRTTRTNSTPLRAACFD [FEM1A] came in with a protein stability index under setting [1] of 3.81 ± 0.38 and a protein stability index under setting [2] of 3.87 ± 0.31.

The values above are taken from the supplement of paper PMC10567573.
